Molecular target: T1, pY14–Cav-1–mRFP (Cav-1–monomeric red fluorescent protein phosphorylated at Tyr-14) (canine, UniProt P33724 1-178, phosphotyrosine at 14)
T1 sequence (looked up): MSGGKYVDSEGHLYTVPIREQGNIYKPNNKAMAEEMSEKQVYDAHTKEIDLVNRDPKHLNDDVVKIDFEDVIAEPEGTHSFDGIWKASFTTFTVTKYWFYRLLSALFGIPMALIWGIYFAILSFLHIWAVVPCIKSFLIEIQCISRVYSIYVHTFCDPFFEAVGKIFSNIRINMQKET
Test: far-Western

binding result: binds
B1: GST fused to the Src SH2 domain (domain or fragment, chicken, UniProt P00523 148-251, looked up)
chain: WYFGKITRRESERLLLNPENPRGTFLVRESETTKGAYCLSVSDFDNAKGLNVKHYKIRKLDSGGFYITSRTQFSSLQQLVAYYSKHADGLCHRLTNVCPTSKPQ

Source: publication PMC3861084 (Molecular Biology of the Cell, 2013)
